# Laboratory results taken from IntAct's records for PubMed 21803990.
# B1: ATP-dependent protease ATPase subunit HslU (Escherichia coli (strain K12)), P0A6H5 (parent)
# chain: MSEMTPREIVSELDKHIIGQDNAKRSVAIALRNRWRRMQLNEELRHEVTPKNILMIGPTGVGKTEIARRLAKLANAPFIKVEATKFTEVGYVGKEVDSIIRDLTDAAVKMVRVQAIEKNRYRAEELAEERILDVLIPPAKNNWGQTEQQQEPSAARQAFRKKLREGQLDDKEIEIDLAAAPMGVEIMAPPGMEEMTSQLQSMFQNLGGQKQKARKLKIKDAMKLLIEEEAAKLVNPEELKQDAIDAVEQHGIVFIDEIDKICKRGESSGPDVSREGVQRDLLPLVEGCTVSTKHGMVKTDHILFIASGAFQIAKPSDLIPELQGRLPIRVELQALTTSDFERILTEPNASITVQYKALMATEGVNIEFTDSGIKRIAEAAWQVNESTENIGARRLHTVLERLMEEISYDASDLSGQNITIDADYVSKHLDALVADEDLSRFIL
# partner: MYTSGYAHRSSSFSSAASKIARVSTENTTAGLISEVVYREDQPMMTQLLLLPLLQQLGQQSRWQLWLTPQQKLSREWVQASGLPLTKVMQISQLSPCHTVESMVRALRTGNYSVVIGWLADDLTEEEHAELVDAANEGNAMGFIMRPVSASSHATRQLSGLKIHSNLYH
# Variants of: B1
# Conditions: with sula_ecoli sulA
row,Variant,effect of a mutation on the interaction
1,Y91F,increasing interaction
2,E266Q,increasing interaction
3,Y408A,increasing interaction

# Variants of: B1
# Conditions: with sula_ecoli sulA
# Remark: another data set of the same source
row,Variant,effect of a mutation on the interaction
1,G90D,increasing interaction
